Measured values published in US20170218073A1 (HENLIX BIOTECH, published 2017).

Legend:
EGFR-AP fusion protein = target: T1, EGFR-AP fusion protein (UniProt P00533 25-645); assay: competitive ELISA: antibody pre-mixed with biotinylated HLX05, EGFR-AP added, capture on avidin wells, pNPP, A405; competitor: biotinylated HLX05
T1 construct: treated as one molecule; also called Alkaline phosphatase-conjugated EGFR; not shown: alkaline phosphatase (AP) part
Experimental: Alkaline phosphatase-conjugated EGFR was then added to the pre-mixed solution and pre-incubated for 1 hour at room temperature. The preincubation mix was then added to mictotiter wells coated with avidin. Following a one-hour incubation, all wells were washed with PBST, and pNPP was added to each well. Following a second incubation at 37° C., the reaction was stopped.

[1] = target: T2, epidermal growth factor receptor (EGFR) (UniProt P00533 25-645, limits assumed); assay: SPR
[2] = target: T3, EGFR antigen produced in-house (UniProt P00533 25-645, limits assumed); assay: off-rate ELISA in wells coated with EGFR antigen produced in-house, A405
T3 construct: May be the same preparation as m1
Source text: The 1-26 heavy chain was selected and used as the basis for generating CDR-H2 libraries for deletion of a glycosylation site. CDR-H2 nucleic acid libraries were generated via PCR, cloned into a phage display vector, and transformed into E. coli to produce a library of phages.

[3] = target: T2, epidermal growth factor receptor (EGFR); assay: kinetics, method not named for Table 6 (presumably SPR); against HLX05
[4] = target: T2, epidermal growth factor receptor (EGFR); assay: kinetics, method not named for Table 6 (presumably SPR)
[5] = target: T2, epidermal growth factor receptor (EGFR); assay: SPR; against HLX05
[6] = target: T2, epidermal growth factor receptor (EGFR); assay: kinetics of Table 6 (method not named, presumably SPR); lower end tied to 1-26/3-67 by Table 6 (2.2)

IC50 (read off the curve) (EGFR-AP fusion protein): ~4 µg/mL | Kd [1]: 0.109 nM | koff [1]: 0.000553 s⁻¹ | kon [1]: 5.09e+06 M⁻¹ s⁻¹ | EC50 (read off the curve) [2]: ~0.3 µg/mL | Fold difference in KD [3]: 2.2 fold | Kd [4]: 0.111 nM | koff [4]: 0.000995 s⁻¹ | kon [4]: 8.93e+06 M⁻¹ s⁻¹ | Fold difference in KD [5]: 1.2 fold | fold higher affinity than HLX05 [6]: 2 to 3 fold
B1: 1-26/3-67 (LC/HC) (antibody, V domains shown)
VH: EVQLVESGGGLVQPGGSLRLSCAASGFSLTNYGVHWVRQAPGKGLEWLGVIWSGGNTDYGNEFTSRFTISRDNAKNSLYLQMNSLRAEDTAVYYCARALDYYDYEFAYWGQGTMVTVSS
VL: EIVLTQSPATLSLSPGERATLSCRASQSIGTNIHWYQQKPGQAPRLLIKYASESISGIPARFSGSGSGTDFTLTISSLEPEDFAVYYCQQNNNWPTSFGGGTKVEIK
notes: also called HLX07; HLX07 1-26/3-67
